From the supplement of paper PMC10126150
± gives the standard deviation of the averaged measurements.

Tested on: ATP
Assay: switch fluorescence ratio, 500 uM ATP over buffer (Cy3 cluster intensity, sum of 5 cycles each) (fold (ratio)); higher = stronger signal-on switching upon ATP binding; sequences stand for … in TCGTCGGCAGCGTCAGATGTGTATAAGAGACAGTTTTTTTTTTTTTTTTTTTTTTTTT…TC
Details: aptamer strand: ATP DNA aptamer (quencher-CACCTGGGGGAGTATTGCGGAGGAAGG + anchor), 100 nM annealed; ATP concentration: 500 uM
How it was run: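 After annealing to 100 nM quencher-labelled ATP aptamer, Cy3-labelled switching-strand clusters on a modified Illumina MiSeq flow-cell were imaged in selection buffer. A second image followed after 15 min with 500 uM ATP at 22 °C, and five such buffer/ATP cycles were done, each separated by NaOH stripping and re-annealing. The fluorescence ratio, averaged per switch-domain sequence, is summed target-cycle over summed buffer-cycle Cy3 intensity per cluster, with clusters outside 100-1000 RFU excluded.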
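Further: ATP exposure 15 min at 22 °C before imaging.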

TTGACTTTAA and TTGAGAAATT are the same in switch fluorescence ratio: 1 ± 0.083 for the first, 1 ± 0.014 for the second.

TTGAGACTAG and TTGAGACTCG are within error of each other in switch fluorescence ratio: 1 ± 0.015 for the first, 0.995 ± 0.019 for the second.

Compared with TTGAGACTGT, TTGAGAGCAA is higher in switch fluorescence ratio: 0.971 ± 0.052 for the first, 1.72 ± 0.18 for the second.

First: TTGAGAGCAG
Second: TTGAGATAAG
The switch fluorescence ratio of the first is higher: 1.24 ± 0.11 for the first, 0.9819 ± 0.0014 for the second.

TTGAGATTGA and TTGAGATTTG are the same in switch fluorescence ratio: 1.01 ± 0.02 for the first, 1.01 ± 0.013 for the second.

TTGAGATTTT and TTGAGCATAT are within error of each other in switch fluorescence ratio: 0.996 ± 0.023 for the first, 2.12 ± 1.2 for the second.

TTGAGCGGGT and TTGAGCTTCA are the same in switch fluorescence ratio: 1.11 ± 0.091 for the first, 1.115 ± 0.0063 for the second.

TTGAGGAAGG and TTGAGGAGGG are within error of each other in switch fluorescence ratio: 0.9835 ± 0.0018 for the first, 0.962 ± 0.11 for the second.

TTGAGGCGGA and TTGAGGGACT are within error of each other in switch fluorescence ratio: 1.04 ± 0.033 for the first, 1.01 ± 0.018 for the second.

TTGAGGGATC and TTGAGGGCAG are within error of each other in switch fluorescence ratio: 1.01 ± 0.06 for the first, 1 ± 0.034 for the second.

TTGAGGGTGA and TTGAGGGTTC are within error of each other in switch fluorescence ratio: 0.988 ± 0.016 for the first, 0.96 ± 0.022 for the second.

TTGAGGGTTT and TTGAGGTCGG are within error of each other in switch fluorescence ratio: 0.994 ± 0.029 for the first, 1.005 ± 0.0066 for the second.

First: TTGAGGTGCG
Second: TTGAGTCGTC
The switch fluorescence ratio of the first is higher: 1.01 ± 0.026 for the first, 0.962 ± 0.011 for the second.

TTGAGTGGAG and TTGAGTGGTT are within error of each other in switch fluorescence ratio: 1.02 ± 0.029 for the first, 1.01 ± 0.092 for the second.

TTGAGTTTTG and TTGATACCAG are within error of each other in switch fluorescence ratio: 0.985 ± 0.031 for the first, 0.982 ± 0.013 for the second.

TTGATAGGCC and TTGATAGGGT are within error of each other in switch fluorescence ratio: 0.9998 ± 0.0049 for the first, 1.01 ± 0.026 for the second.

TTGATAGTTG and TTGATATTTG are the same in switch fluorescence ratio: 1.01 ± 0.049 for the first, 1.01 ± 0.039 for the second.

TTGATCAGAG and TTGATCAGTA are within error of each other in switch fluorescence ratio: 1.01 ± 0.024 for the first, 1.02 ± 0.02 for the second.

TTGATCGTGC and TTGATCTGCT are within error of each other in switch fluorescence ratio: 1.12 ± 0.18 for the first, 0.987 ± 0.023 for the second.

TTGATGATCC and TTGATGCAGC are within error of each other in switch fluorescence ratio: 0.9781 ± 0.0034 for the first, 0.958 ± 0.054 for the second.

First: TTGATGGGGA
Second: TTGATGGGTT
The switch fluorescence ratio of the first is lower: 0.982 ± 0.014 for the first, 1.02 ± 0.011 for the second.

TTGATGTCAA and TTGATGTCCC are within error of each other in switch fluorescence ratio: 0.999 ± 0.056 for the first, 1 ± 0.027 for the second.

TTGATTGGCG and TTGATTGGGG are within error of each other in switch fluorescence ratio: 1.07 ± 0.058 for the first, 0.989 ± 0.029 for the second.

TTGATTTAGG and TTGATTTTAA are within error of each other in switch fluorescence ratio: 0.995 ± 0.028 for the first, 1 ± 0.014 for the second.

TTGATTTTTG and TTGCAATTTT are within error of each other in switch fluorescence ratio: 1.01 ± 0.03 for the first, 1.36 ± 0.46 for the second.

Going from TTGCACAATT to TTGCACTACT, the switch fluorescence ratio rises from 1.01 ± 0.057 to 1.5 ± 0.025.

TTGCACTGAC and TTGCAGCTCA are within error of each other in switch fluorescence ratio: 1.53 ± 0.21 for the first, 1.78 ± 1.1 for the second.

Compared with TTGCAGTAGC, TTGCATAGTG is lower in switch fluorescence ratio: 1.05 ± 0.033 for the first, 0.9536 ± 0.0026 for the second.

TTGCATGTTG and TTGCATGTTT are within error of each other in switch fluorescence ratio: 0.9886 ± 0.0033 for the first, 1.15 ± 0.3 for the second.

TTGCATTAAG and TTGCATTAGG are within error of each other in switch fluorescence ratio: 0.9963 ± 0.0082 for the first, 1.28 ± 0.31 for the second.

Going from TTGCATTATA to TTGCATTGGA, the switch fluorescence ratio falls from 1.07 ± 0.054 to 0.9885 ± 0.0079.

TTGCATTTTC and TTGCATTTTG are within error of each other in switch fluorescence ratio: 1.09 ± 0.11 for the first, 0.985 ± 0.025 for the second.

TTGCCAATCC and TTGCCAGATT are within error of each other in switch fluorescence ratio: 1.04 ± 0.04 for the first, 0.994 ± 0.037 for the second.

TTGCCCCGTA and TTGCCCCTTA are within error of each other in switch fluorescence ratio: 1.02 ± 0.023 for the first, 1.03 ± 0.045 for the second.

TTGCCGGGCA and TTGCCTCGGG are within error of each other in switch fluorescence ratio: 0.987 ± 0.032 for the first, 1.04 ± 0.037 for the second.

TTGCCTGGGG and TTGCGAGAAC are within error of each other in switch fluorescence ratio: 1.02 ± 0.013 for the first, 1.17 ± 0.18 for the second.

TTGCGATGGT and TTGCGGAGGG are within error of each other in switch fluorescence ratio: 1.02 ± 0.012 for the first, 1.01 ± 0.069 for the second.

TTGCGGGGCC and TTGCGTATGG are within error of each other in switch fluorescence ratio: 1.04 ± 0.051 for the first, 1.01 ± 0.021 for the second.

In the case of TTGCTAAAAG, the switch fluorescence ratio is reported as 1.02 ± 0.028.
